Biological target: full-length (FL) BRAF^WT, 6x-HIS-BRAF-WT/FLAG (human, UniProt P15056 2-766)
Test: kinase activity inhibition (ELISA); with 0.1 nM Dabrafenib

Sequence of full-length (FL) BRAF^WT, 6x-HIS-BRAF-WT/FLAG (P15056 2-766): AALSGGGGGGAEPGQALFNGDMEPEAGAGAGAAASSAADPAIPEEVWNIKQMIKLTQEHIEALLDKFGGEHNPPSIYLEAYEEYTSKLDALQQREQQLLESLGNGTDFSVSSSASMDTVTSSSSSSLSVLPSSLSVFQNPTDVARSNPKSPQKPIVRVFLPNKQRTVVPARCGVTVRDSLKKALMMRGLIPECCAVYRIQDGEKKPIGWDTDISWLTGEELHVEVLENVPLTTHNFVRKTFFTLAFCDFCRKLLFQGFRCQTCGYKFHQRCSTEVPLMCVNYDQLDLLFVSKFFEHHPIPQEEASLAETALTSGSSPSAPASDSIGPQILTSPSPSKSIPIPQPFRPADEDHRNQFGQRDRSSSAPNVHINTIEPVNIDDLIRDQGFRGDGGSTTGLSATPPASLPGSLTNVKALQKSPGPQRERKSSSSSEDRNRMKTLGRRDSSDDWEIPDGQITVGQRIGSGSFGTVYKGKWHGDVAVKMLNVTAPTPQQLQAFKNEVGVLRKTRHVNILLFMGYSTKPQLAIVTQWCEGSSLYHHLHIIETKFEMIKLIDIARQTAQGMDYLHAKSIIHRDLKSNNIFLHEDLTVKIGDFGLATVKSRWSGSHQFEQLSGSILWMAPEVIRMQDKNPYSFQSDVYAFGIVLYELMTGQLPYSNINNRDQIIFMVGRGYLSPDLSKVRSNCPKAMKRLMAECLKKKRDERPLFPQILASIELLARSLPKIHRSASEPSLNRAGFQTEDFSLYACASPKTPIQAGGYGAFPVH

B1: braftide (peptide)
peptide: TRHVNILLFM
  IC50: 0.28 µM

Reference: patent publication US20200360469A1 (published 2020)
